Laboratory results published in US20020062008A1 (ICOS, published 2002).

T1: soluble ICAM-R/IgG1 fusion protein (UniProt P32942 30-485, limits assumed)
T1 construct: not shown: IgG1 portion
T1 sequence (looked up): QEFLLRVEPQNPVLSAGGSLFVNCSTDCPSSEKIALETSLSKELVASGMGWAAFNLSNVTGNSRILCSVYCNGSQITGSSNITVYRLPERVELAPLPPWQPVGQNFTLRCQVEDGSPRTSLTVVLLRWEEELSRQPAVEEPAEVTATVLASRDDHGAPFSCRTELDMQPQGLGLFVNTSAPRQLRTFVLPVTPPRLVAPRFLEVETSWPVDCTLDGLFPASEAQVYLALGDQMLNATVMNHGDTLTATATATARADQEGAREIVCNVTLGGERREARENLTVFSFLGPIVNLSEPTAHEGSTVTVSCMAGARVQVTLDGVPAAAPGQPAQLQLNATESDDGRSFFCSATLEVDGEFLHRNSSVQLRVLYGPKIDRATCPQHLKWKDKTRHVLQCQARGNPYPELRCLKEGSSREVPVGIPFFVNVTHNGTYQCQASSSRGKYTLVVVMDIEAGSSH

B1: VCAM-1 domains 1 and 2 fused to human immunoglobulin Fc (Fc fusion, UniProt P19320 25-220, looked up, not shown: a dimerising Fc or GST)
chain: FKIETTPESRYLAQIGDSVSLTCSTTGCESPFFSWRTQIDSPLNGKVTNEGTTSTLTMNPVSFGNEHSYLCTATCESRKLEKGIQVEIYSFPKDPEIHLSGPLEAGKPITVKCSVADVYPFDRLEIDLLKGDHLMKSQEFLEDADRKSLETKSLEVTFTPVIEDIGKVLVCRAKLHIDEMDSVPTVRQAVKELQVY
notes: domain: domains 1 and 2; also called two domain form of VCAM-1
B2: human αd I domain/IgG4 fusion protein (Fc fusion)
chain: IVFLIDGSGSIDQNDFNQMKGFVQAVMGQFEGTDTLFALMQYSNLLKIHFTFTQFRTSPSQQSLVDPIVQLKGLTFTATGILTVVTQLFHHKNGARKSAKKILIVITDGQKYKDPLEYSDVIPQAEKAGIIRYAIGVGHAFQGPTARQELNTISSAPPQDHVFKVDNFAALGSIQKQLQEKIYAVEGTQSRASSSFQHEMSQE
notes: Residue limits approximate; also called Iαd/IgG4; I domain chimera; not shown: human IgG4 portion
B3: CD11a I domain/IgG chimeric protein (Fc fusion, UniProt P20701 153-332, looked up)
chain: GNVDLVFLFDGSMSLQPDEFQKILDFMKDVMKKLSNTSYQFAAVQFSTSYKTEFDFSDYVKRKDPDALLKHVKHMLLLTNTFGAINYVATEVFREELGARPDATKVLIIITDGEATDSGNIDAAKDIIRYIIGIGKHFQTKESQETLHKFASKPASEFVKILDTFEKLKDLFTELQKKIY
notes: domain: I domain; Negative control; also called CD11a/IgG4 protein; not shown: IgG4 portion
B4: soluble VCAM-1/IgG1 fusion protein (seven extracellular immunoglobulin-like domains) (Fc fusion, UniProt P19320 25-698, looked up)
chain: FKIETTPESRYLAQIGDSVSLTCSTTGCESPFFSWRTQIDSPLNGKVTNEGTTSTLTMNPVSFGNEHSYLCTATCESRKLEKGIQVEIYSFPKDPEIHLSGPLEAGKPITVKCSVADVYPFDRLEIDLLKGDHLMKSQEFLEDADRKSLETKSLEVTFTPVIEDIGKVLVCRAKLHIDEMDSVPTVRQAVKELQVYISPKNTVISVNPSTKLQEGGSVTMTCSSEGLPAPEIFWSKKLDNGNLQHLSGNATLTLIAMRMEDSGIYVCEGVNLIGKNRKEVELIVQEKPFTVEISPGPRIAAQIGDSVMLTCSVMGCESPSFSWRTQIDSPLSGKVRSEGTNSTLTLSPVSFENEHSYLCTVTCGHKKLEKGIQVELYSFPRDPEIEMSGGLVNGSSVTVSCKVPSVYPLDRLEIELLKGETILENIEFLEDTDMKSLENKSLEMTFIPTIEDTGKALVCQAKLHIDDMEFEPKQRQSTQTLYVNVAPRDTTVLVSPSSILEEGSSVNMTCLSQGFPAPKILWSRQLPNGELQPLSENATLTLISTKMEDSGVYLCEGINQAGRSRKEVELIIQVTPKDIKLTAFPSESVKEGDTVIISCTCGNVPETWIILKKKAETGDTVLKSIDGAYTIRKAQLKDAGVYECESKNKVGSQLRSLTLDVQGRENNKDYFSPE
notes: domain: seven extracellular immunoglobulin-like domains; not shown: IgG1 portion
B5: soluble ICAM-1/IgG1 fusion protein (Fc fusion, UniProt P05362 28-480, looked up)
chain: QTSVSPSKVILPRGGSVLVTCSTSCDQPKLLGIETPLPKKELLLPGNNRKVYELSNVQEDSQPMCYSNCPDGQSTAKTFLTVYWTPERVELAPLPSWQPVGKNLTLRCQVEGGAPRANLTVVLLRGEKELKREPAVGEPAEVTTTVLVRRDHHGANFSCRTELDLRPQGLELFENTSAPYQLQTFVLPATPPQLVSPRVLEVDTQGTVVCSLDGLFPVSEAQVHLALGDQRLNPTVTYGNDSFSAKASVSVTAEDEGTQRLTCAVILGNQSQETLQTVTIYSFPAPNVILTKPEVSEGTEVTVKCEAHPRAKVTLNGVPAQPLGPRAQLLLKATPEDNGRSFSCSATLEVAGQLIHKNQTRELRVLYGPRLDERDCPGNWTWPENSQQTPMCQAWGNPLPELKCLKDGTFPLPIGESVTVTRDLEGTYLCRARSTQGEVTRKVTVNVLSPRYE
notes: not shown: IgG1 portion (detected with anti-human IgG1)
B6: E-selectin, immobilized recombinant (ligand, UniProt P16581 22-556, looked up)
chain: WSYNTSTEAMTYDEASAYCQQRYTHLVAIQNKEEIEYLNSILSYSPSYYWIGIRKVNNVWVWVGTQKPLTEEAKNWAPGEPNNRQKDEDCVEIYIKREKDVGMWNDERCSKKKLALCYTAACTNTSCSGHGECVETINNYTCKCDPGFSGLKCEQIVNCTALESPEHGSLVCSHPLGNFSYNSSCSISCDRGYLPSSMETMQCMSSGEWSAPIPACNVVECDAVTNPANGFVECFQNPGSFPWNTTCTFDCEEGFELMGAQSLQCTSSGNWDNEKPTCKAVTCRAVRQPQNGSVRCSHSPAGEFTFKSSCNFTCEEGFMLQGPAQVECTTQGQWTQQIPVCEAFQCTALSNPERGYMNCLPSASGSFRYGSSCEFSCEQGFVLKGSKRLQCGPTGEWDNEKPTCEAVRCDAVHQPPKGLVRCAHSPIGEFTYKSSCAFSCEEGFELHGSTQLECTSQGQWTEEVPSCQVVKCSSLAVPGKINMSCSGEPVFGTVCKFACPEGWTLNGSAARTCGATGHWSGLLPTCEAPTESNIP
notes: also called E-selection

What was measured:
[1] = target: T2, human αd/CD18 heterodimer expressed on transfected cells (COS, CHO, JY) (human, UniProt P05107 23-769); assay: adhesion of CHO transfectants to immobilized CAM, crystal violet A570
T2 construct: whole, on cells; also used as detergent lysate in immunoprecipitations; also called αd/CD18 CHO transfected cells; αd/CD18 co-transfectants
Procedure: (§1) The ability of CHO cells expressing either α₄β₁ or αdβ₂ to bind a five domain VCAM-1/Ig fusion protein or ICAM-1/Ig fusion protein was tested as follows. CAMs were immobilized on 96 well microtiter plates at 0.5 μg/well in bicarbonate buffer (pH 9.5). Plates were blocked with 1% fish gelatin and treated with either buffer, irrelevant antibody or a blocking VCAM-1 antibody. […] Cells were washed before addition to the CAM-coated wells at a density of 100,000 cells per well. Cells were incubated in the presence of the immobilized […] for twenty minutes before addition of 5% glutaraldehyde. Following fixation, plates were washed with distilled water and cells were stained with 1% crystal violet, After destaining with 66% ethanol for several hours, absorbance at 570 nm was measured on a Dynatech plate reader.

bovine serum albumin = target: T3, bovine serum albumin (bovine, UniProt P02769 25-607); assay: ELISA, bound IgG4 detected with HP6023
T3 construct: also called BSA
T3 sequence (P02769 25-607 limits assumed): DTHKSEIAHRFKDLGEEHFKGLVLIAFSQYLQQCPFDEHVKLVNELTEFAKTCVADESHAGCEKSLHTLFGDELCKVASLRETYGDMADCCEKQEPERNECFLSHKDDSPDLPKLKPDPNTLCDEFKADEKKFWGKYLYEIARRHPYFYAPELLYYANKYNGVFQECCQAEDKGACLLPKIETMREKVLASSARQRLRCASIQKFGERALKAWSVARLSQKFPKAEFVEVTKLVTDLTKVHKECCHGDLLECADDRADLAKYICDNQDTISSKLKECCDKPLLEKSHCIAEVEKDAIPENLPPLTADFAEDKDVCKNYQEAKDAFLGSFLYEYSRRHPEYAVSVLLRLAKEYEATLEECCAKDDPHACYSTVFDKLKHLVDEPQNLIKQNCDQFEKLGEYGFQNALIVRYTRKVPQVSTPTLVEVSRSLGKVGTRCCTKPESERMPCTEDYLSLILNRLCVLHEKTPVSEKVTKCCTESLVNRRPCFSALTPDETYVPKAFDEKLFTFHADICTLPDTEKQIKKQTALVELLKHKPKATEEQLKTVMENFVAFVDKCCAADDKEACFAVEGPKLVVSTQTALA

[2] = target: B5; assay: ELISA, bound IgG4 detected with HP6023
[3] = target: T1, soluble ICAM-R/IgG1 fusion protein; assay: ELISA, bound IgG4 detected with HP6023
[4] = target: B4; assay: ELISA, bound IgG4 detected with HP6023
[5] = target: T4, LFA-1 leucine zipper fusion protein (soluble CD11a/CD18) (UniProt P20701 26-1090; P05107 23-700); assay: ELISA on LFA-1LZ captured with TS2/4.1
T4 construct: also called LFA-1LZ; captured CD11a/CD18
Procedure: (§2) The same protocol was used to immobilize the anti-CD11a antibody TS2/4.1 for immobilization of a LFA-1 leucine zipper (LFA-1LZ) fusion protein; LFA-1 was used as a negative control for VCAM-1 binding and a positive control for ICAM-1 binding. The plates were blocked with 300 μl/well 3% bovine serum albumin for one hour and washed in D-PBS. Tissue culture supernatants from stable CHO transfectants expressing either αd/CD18LZ or LFA-1LZ were added at 100 μl/well and allowed to incubate for 6 to 8 hours at 4° C. The plates were washed twice with Tris-buffered saline with Tween® 20 (TBS-T), followed by one wash with TBS (no Tween®) containing 2 mM each calcium chloride, magnesium chloride, and manganese chloride. The latter served as assay and wash buffer during the remainder of the assay.
(§3) After integrin capture, the plates were washed three times with 250 μl/well TBS. Purified CAM/Ig (see Example 12) was added to each well following serial 2:3 dilutions starting at a concentration of 10 to 20 μg/ml. CAM/Igs were allowed to bind for two hours at room temperature before plates were washed as above. Bound fusion protein was detected with horseradish peroxidase-conjugated goat anti-human Ig antibody (Jackson Labs) followed by development with o-phenyldiamine (OPD).

[6] = target: T4, LFA-1 leucine zipper fusion protein …; assay: ELISA, CAM/Ig on captured soluble CD11a/CD18
Procedure: as §2, §3

[7] = target: T2, human αd/CD18 heterodimer expressed on …; assay: adhesion of CHO transfectants to immobilized CAM, crystal violet
Procedure: as §1

[8] = target: T5, α4β1 expressed on CHO cells (UniProt P13612 34-1032; P05556 21-798, limits assumed); assay: as above
T5 construct: whole, on cells; also called α4 transformed CHO cells; α4 transfected line
Procedure: as §1

[9] = target: T2, human αd/CD18 heterodimer expressed on …; assay: adhesion of αdβ2-transfected CHO cells to coated wells
Procedure: For transfected and parental CHO cells, adhesion was performed using coated plates identical to those employed for eosinophil adhesion. […] A modification of a previously described gentle washing technique [Shanley, et al., J. Immunol. 160:1014 (1998)] was therefore employed. This technique allowed non-adherent cells to be dislodged from the inverted plate with centrifugation at 1×g for 30 minutes at 20° C. Remaining adherent cells were then removed using 0.1 M EDTA (Sigma) and counted by flow cytometry. In addition to VCAM-1, E-selection (100 ng/ml) was also used to coat wells in some adhesion experiments. In addition to the blocking monoclonal antibodies used in the eosinophil studies, immobilized VCAM-1 was pretreated with an appropriate dilution of F(ab′)₂ anti-VCAM-1 monoclonal antibody prior to the addition of CHO cells.
Chinese hamster ovary cells were transfected as described in Example 11. The αdβ₂-transfected CHO cells were cultured in DMEM/F12 media with 1 mM pyruvate and 2 mM L-glutamine (Biofluids) supplemented with 10% dialyzed FBS, 100 U/ml penicillin, 100 μg/ml streptomycin, and 600 μg/ml G418 (all from Life Technologies). Media for culture of the parental CHO cell line was similar except that non-dialyzed FBS (Life Technologies) was used and 0.1 mM hypoxanthine and 16 nM thymidine (Sigma) were used in place of the G418. […]

Binder: B1
binding result [1]: binds

Binder: B2
binding result (bovine serum albumin): no binding | binding result [2]: no binding

Binder: B3
binding result [3]: no binding | binding result [4]: no binding

Binder: B4
binding result [5]: no binding

Binder: B5
fold above background [6]: ~15 fold | binding result [7]: no binding (tested: 0.5 µg/well coat) | binding result [8]: no binding (tested: 0.5 µg/well coat)

Binder: B6
binding result [9]: no binding (tested: 100 ng/ml coat)
